Reference: publication PMC3117843

What was measured:
[1] = target: HCV envelope glycoproteins E1 and E2 on HCV genotype 3a virus from patients' serum (Hepatitis C virus genotype 3a)
[2] = target: HCV envelope glycoproteins E1 and E2 of genotype 3a on HCV pseudoparticles (Hepatitis C virus genotype 3a)

B1: Galanthus nivalis agglutinin (natural protein)
chain: SCLSDNILYSGETLSTGEFLNYGSFVFIMQEDCNLVLYDVDKPIWATNTGGLSRSCFLSMQTDGNLVVYNPSNKPIWASNTGGQNGNYVCILQKDRNVVIYGTDRWATG
Which results are given for B1?
infection of Huh-7 cells by HCV 3a virus pre-incubated with GNA, HCV RNA by quantitative RT-PCR, EC50 (Figure 4) [1]: 1 µg; infection of Huh-7 cells by HCV 3a virus pre-incubated with GNA, HCV RNA by quantitative RT-PCR, EC90 (Figure 4) [1]: 5 µg; inhibition of HCVpp entry into Huh-7 cells, concentration of GNA for 50% reduction (Figure 3a and 3b) [2]: 1 µg
